Patent US20230151095A1 (published 2023)
Changes are numbered by the printed parent chain.

T1: XENP23311 (His-tagged NKG2D-Fc) (human, UniProt P26718 78-216)
T1 chain: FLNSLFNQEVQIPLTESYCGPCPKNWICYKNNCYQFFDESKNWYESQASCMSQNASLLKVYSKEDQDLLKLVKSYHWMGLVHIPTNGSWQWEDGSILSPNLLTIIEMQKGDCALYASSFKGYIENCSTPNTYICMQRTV

B1: XENP41030 (antibody)
chain 1: EVQLLESGGGLVQPGGSLRLSCAVSGFSLSSYGVIWVRQAPGKGLEYVSWVSSGGSTNYASSVKGRFTISRDTSKNTVYLQMNSLRAEDTAVYFCARGATNSGTDIWGPGTLVTVSSASTKGPSVFPLAPSSKSTSGGTAALGCLVKDYFPEPVTVSWNSGALTSGVHTFPAVLQSSGLYSLSSVVTVPSSSLGTQTYICNVNHKPSDTKVDKKVEPKSCDKTHTCPPCPAPELLGGPSVFLFPPKPKDTLMISRTPEVTCVVVDVSHEDPEVKFNWYVDGVEVHNAKTKPREEEYNSTYRVVSVLTVLHQDWLNGKEYKCKVSNKALPAPEEKTISKAKGQPREPQVYTLPPSREEMTKNQVSLTCDVSGFYPSDIAVEWESDGQPENNYKTTPPVLDSDGSFFLYSKLTVDKSRWEQGDVFSCSVMHEALHNHYTQKSLSLSPGK
chain 2: not shown
chain 3: DIVMTQSPSSLSASVGDRVTITCRASQSINSWLSWYQQKPGKPPKLLIYGASNLASGVPSRFKGSGSGTDFTLTISSLQPEDFATYYCQNNYGIIAAGATFGGGTKVEIKRTVAAPSVFIFPPSDEQLKSGTASVVCLLNNFYPREAKVQWKVDNALQSGNSQESVTEQDSKDSTYSLSSTLTLSKADYEKHKVYACEVTHQGLSSPVTKSFNRGEC
B2: XENP41027 (antibody)
chain 1: B1 chain 1 with E332I
chain 2: EVQLLESGGGLVQPGGSLRLSCAVSGFSLSSYGVIWVRQAPGKGLEYVSWVSSGGSTNYASSVKGRFTISRDTSKNTVYLQMNSLRAEDTAVYFCARGATNSGTDIWGPGTLVTVSSGKPGSGKPGSGKPGSGKPGSDIVMTQSPSSLSASVGDRVTITCRASQSINSWLSWYQQKPGKPPKLLIYGASNLASGVPSRFKGSGSGTDFTLTISSLQPEDFATYYCQNNYGIIAAGATFGGGTKVEIKEPKSSDKTHTCPPCPAPELLGGPSVFLFPPKPKDTLMISRTPEVTCVVVDVSHEDPEVKFNWYVDGVEVHNAKTKPREEQYNSTYRVVSVLTVLHQDWLNGKEYKCKVSNKALPAPEEKTISKAKGQPREPQVYTLPPSREQMTKNQVKLTCLVKGFYPSDIAVEWESNGQPENNYKTTPPVLDSDGSFFLYSKLTVDKSRWQQGNVFSCSVMHEALHNHYTQKSLSLSPGK
chain 3: B1 chain 3
B3: XENP41022 (antibody)
chain 1: B1 chain 1 with S239D
chain 2: B2 chain 2 with S271D
chain 3: B1 chain 3
B4: XENP40888 (LB_1002, 2+1 VHVL) (antibody)
chain 1: B1 chain 1 with E332I
chain 2: EVQLLESGGGLVQPGGSLRLSCAVSGFSLSSYGVIWVRQAPGKGLEYVSWVSSGGSTNYASSVKGRFTISRDTSKNTVYLQMNSLRAEDTAVYFCARGATNSGTDIWGPGTLVTVSSASTKGPSVFPLAPSSKSTSGGTAALGCLVKDYFPEPVTVSWNSGALTSGVHTFPAVLQSSGLYSLSSVVTVPSSSLGTQTYICNVNHKPSNTKVDKKVEPKSCGGGGSGGGGSEVQLVESGGGLVKPGGSLRLSCAASGFTFSSYSMNWVRQAPGKGLEWVSSISSSSSYIYYADSVKGRFTISRDNAKNSLYLQMNSLRAEDTAVYYCARGAPMGAAAGWFDPWGQGTLVTVSSGKPGSGKPGSGKPGSGKPGSDIQMTQSPSSVSASVGDRVTITCRASQGISSWLAWYQQKPGKAPKLLIYAASSLQSGVPSRFSGSGSGTDFTLTISSLQPEDFATYYCQQGVSFPRTFGGGTKVEIKGGGGSGGGGSKTHTCPPCPAPELLGGPSVFLFPPKPKDTLMISRTPEVTCVVVDVSHEDPEVKFNWYVDGVEVHNAKTKPREEQYNSTYRVVSVLTVLHQDWLNGKEYKCKVSNKALPAPIEKTISKAKGQPREPQVYTLPPSREQMTKNQVKLTCLVKGFYPSDIAVEWESNGQPENNYKTTPPVLDSDGSFFLYSKLTVDKSRWQQGNVFSCSVMHEALHNHYTQKSLSLSPGK
chain 3: B1 chain 3
B5: XENP40552 (LB_1001, mAb-scFv VHVL) (antibody)
chain 1: B1 chain 1 with E332I
chain 2: not shown
chain 3: B1 chain 3
B6: XENP41333 (LB_1001, 1+1 VLVH) (antibody)
chain 1: B1 chain 1 with E332I
chain 2: not shown
chain 3: B1 chain 3
B7: XENP41344 (1D7B4, mAb-scFv VLVH) (antibody)
chain 1: B1 chain 1 with E332I
chain 2: not shown
chain 3: B1 chain 3
B8: XENP40891 (LB_1002, mAb-scFv VHVL) (antibody)
chain 1: B1 chain 1 with E332I
chain 2: not shown
chain 3: B1 chain 3
B9: XENP41334 (LB_1002, 1+1 VLVH) (antibody)
chain 1: B1 chain 1 with E332I
chain 2: not shown
chain 3: B1 chain 3
B10: XENP41341 (LB_1001, mAb-scFv VLVH) (antibody)
chain 1: B1 chain 1 with E332I
chain 2: not shown
chain 3: B1 chain 3
B11: XENP41336 (1D7B4, 1+1 VLVH) (antibody)
chain 1: B1 chain 1 with E332I
chain 2: not shown
chain 3: B1 chain 3
B12: XENP41342 (LB_1002, mAb-scFv VLVH) (antibody)
chain 1: B1 chain 1 with E332I
chain 2: not shown
chain 3: B1 chain 3
B13: XENP41340 (1D7B4, 2+1 VLVH) (antibody)
chain 1: B1 chain 1 with E332I
chain 2: not shown
chain 3: B1 chain 3
B14: XENP41335 (1D2B4, 1+1 VLVH) (antibody)
chain 1: B1 chain 1 with E332I
chain 2: not shown
chain 3: B1 chain 3
B15: XENP40558 (1D7B4, mAb-scFv VHVL) (antibody)
chain 1: B1 chain 1 with E332I
chain 2: not shown
chain 3: B1 chain 3
B16: XENP41337 (LB_1001, 2+1 VLVH) (antibody)
chain 1: B1 chain 1 with E332I
chain 2: not shown
chain 3: B1 chain 3
B17: XENP41339 (1D2B4, 2+1 VLVH) (antibody)
chain 1: B1 chain 1 with E332I
chain 2: not shown
chain 3: B1 chain 3
B18: XENP40457 (LB_1002, 1+1 VHVL) (antibody)
chain 1: B1 chain 1 with E332I
chain 2: not shown
chain 3: B1 chain 3
B19: XENP40555 (1D2B4, mAb-scFv VHVL) (antibody)
chain 1: B1 chain 1 with E332I
chain 2: not shown
chain 3: B1 chain 3
B20: XENP40372 (1D2B4, 1+1 VHVL) (antibody)
chain 1: B1 chain 1 with E332I
chain 2: not shown
chain 3: B1 chain 3
B21: XENP40375 (1D7B4, 1+1 VHVL) (antibody)
chain 1: B1 chain 1 with E332I
chain 2: not shown
chain 3: B1 chain 3
B22: XENP41338 (LB_1002, 2+1 VLVH) (antibody)
chain 1: B1 chain 1 with E332I
chain 2: EVQLLESGGGLVQPGGSLRLSCAVSGFSLSSYGVIWVRQAPGKGLEYVSWVSSGGSTNYASSVKGRFTISRDTSKNTVYLQMNSLRAEDTAVYFCARGATNSGTDIWGPGTLVTVSSASTKGPSVFPLAPSSKSTSGGTAALGCLVKDYFPEPVTVSWNSGALTSGVHTFPAVLQSSGLYSLSSVVTVPSSSLGTQTYICNVNHKPSNTKVDKKVEPKSCGGGGSGGGGSDIQMTQSPSSVSASVGDRVTITCRASQGISSWLAWYQQKPGKAPKLLIYAASSLQSGVPSRFSGSGSGTDFTLTISSLQPEDFATYYCQQGVSFPRTFGGGTKVEIKGKPGSGKPGSGKPGSGKPGSEVQLVESGGGLVKPGGSLRLSCAASGFTFSSYSMNWVRQAPGKGLEWVSSISSSSSYIYYADSVKGRFTISRDNAKNSLYLQMNSLRAEDTAVYYCARGAPMGAAAGWFDPWGQGTLVTVSSGGGGSGGGGSKTHTCPPCPAPELLGGPSVFLFPPKPKDTLMISRTPEVTCVVVDVSHEDPEVKFNWYVDGVEVHNAKTKPREEQYNSTYRVVSVLTVLHQDWLNGKEYKCKVSNKALPAPIEKTISKAKGQPREPQVYTLPPSREQMTKNQVKLTCLVKGFYPSDIAVEWESNGQPENNYKTTPPVLDSDGSFFLYSKLTVDKSRWQQGNVFSCSVMHEALHNHYTQKSLSLSPGK
chain 3: B1 chain 3
B23: XENP40590 (1D7B4, 2+1 VHVL) (antibody)
chain 1: B1 chain 1 with E332I
chain 2: not shown
chain 3: B1 chain 3
B24: XENP40587 (1D2B4, 2+1 VHVL) (antibody)
chain 1: B1 chain 1 with E332I
chain 2: not shown
chain 3: B1 chain 3
B25: XENP41343 (1D2B4, mAb-scFv VLVH) (antibody)
chain 1: B1 chain 1 with E332I
chain 2: not shown
chain 3: B1 chain 3
B26: XENP40381 (LB_1001, 1+1 VHVL) (antibody)
chain 1: B1 chain 1 with E332I
chain 2: not shown
chain 3: B1 chain 3
B27: XENP40584 (LB_1001, 2+1 VHVL) (antibody)
chain 1: B1 chain 1 with E332I
chain 2: not shown
chain 3: B1 chain 3

molecular target: CD16 (UniProt P08637 17-208); experiment: not given
Sequence (P08637 17-208): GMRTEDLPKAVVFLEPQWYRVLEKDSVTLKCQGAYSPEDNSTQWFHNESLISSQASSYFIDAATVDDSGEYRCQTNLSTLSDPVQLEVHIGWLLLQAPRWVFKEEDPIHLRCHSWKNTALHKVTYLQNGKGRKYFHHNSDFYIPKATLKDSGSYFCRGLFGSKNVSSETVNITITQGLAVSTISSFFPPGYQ

Kd [nM] | Binder
203 | B1
242 | B2
28.9 | B3

Molecular target: T1, XENP23311 (His-tagged NKG2D-Fc)
Experiment: Octet

Kd [nM] | Binder
158 | B4
95.1 | B5
42 | B6
28.9 | B7
327 | B8
97.3 | B9
359 | B10
13.9 | B11
680 | B12
18.4 | B13
41.7 | B14
28.8 | B15
278 | B16
83.1 | B17
458 | B18
83.8 | B19
35.7 | B20
7.72 | B21
630 | B22
21.9 | B23
59.8 | B24
115 | B25
84.5 | B26
122 | B27
